Experimental findings from patent US5747329 are described below.

The target of the assay is heavy subunit of rat kidney gamma-glutamylcysteine synthetase (rat).

For “light subunit of rat kidney gamma-glutamylcysteine synthetase (enzyme)”, the Apparent Km for glutamate (mM), co-expressed recombinant holoenzyme stood at 1.8 mM and the Apparent Km for glutamate (mM), recombinant holoenzyme made by mixing the separately expressed subunits is 2.8 mM.
